Source: the DeepSol protein solubility set

Test: soluble on expression in E. coli; label from the status in PepcDB or PDB records
In the case of “MAPTRAVIPDDFELPVDAFDIPICYDGDLSGVVIPEGLVRDRVRRLAKDIHAEIGNKPIALLCVLKGSYKFFTALVEELTNARSSCPEPMTVDFIRVKSYEDQMSTGQIQIMGLSNLDELKGKSVLVVDDISDTGRTLAKLLSTLHETGVEKTWTALLLSKRVKRVVDVPEDFVAFEIPDKFIVGYGLDYNQKFRDLGHICVMSPAGIEKYKSE”, the “soluble on expression in E. coli” value is reported as “not soluble”. For “GPGSMVAKQHFLAAVKMTPARGAAAALSPPQTAEVVGRTAAGGKGCSGSFVDRRLENVMARAREMGWTSPESLIESLKAAQWHSHGKTPAIAEAEAAALPSPHVPAFKPDALSSSSDRHAQPRLPQPRDETPHQARKGAAVSGANSSITECWSGHGPVSQQPHTPHQGADACRAFPSSRTESADSAMRVEATRVLCSGGAAHAGLPSESLLSPPAAESSRVAGTGHAYPPAPLQGHEGLVSSGLTNPLTRLTMPTSATAGAAAAQPLIELEQELVKLRHLVRTLESKQFVHAHQSSAQASELQAQCAELQHQQLAQAKELRLALARLISVGNELEGLRDVKTHLQMQLTASQQESARLRDALLMGETRARDVQ”, the “soluble on expression in E. coli” value was “not soluble”. For “MEFGRNPLSMTSTKPTLLNVLDDVGEAALHAIPKVDDITSHKIYVIAVQPVSFSDIESQAVKQDASSPNNCCCSCMHGVLRFFAELCCNCCAGCVQGICQG”, the “soluble on expression in E. coli” value was “not soluble”. In the case of “MSLELPILPTSVIGSYPKPRWLLRMYKLRELGKIPEEDFKEAVRDASISVLREHERAGIDIPWDGEMGRSEMTEYFTSKIKGFKFYGPVRVWGNAYFNKAAAVDKLEYEEPLVLDEFLWVKENTTREIVKIPITGPYTIAEWSFNEYYPDKESFVMDLAEIINKELKVLEKHGAKFVQLDEPAMLNHPSEVPLAVDAINRAVKGIKMKVGLHVCYSNYNLLADYFDEIKVTQFALEFANRNFRDMDFLKKLSNKELGFGVVDVHNPRVESVEEIRQAIKKVFTYLEPEWVYINPDCGLKLLDRKIAYQKLVNMVQAVRGVRKELEKEGKTTIEFRTLKDIEGHHHHHH”, the “soluble on expression in E. coli” value is reported as “soluble”. With “EPVVVSAADGEIRTGNDHLCDLLDSDPSDVFGSQIGTFFPGLDDVDLRAHCSQSPGTPLTSSCSAGGTERWVEIAFEPQQWDG” the “soluble on expression in E. coli” value was “not soluble”. In the case of “MSLKNIVFDIGNVLLKFTPVEFLKSKYKDDKLVEALYENVFKSNEWVELDRGTITEEEATCRFCKRDPHNAKYIREVMETWNEMHVPVEGTSELMKELREKGYKIYLLSNYHLKAFKLISDKYDFIRDVDGGIISSKVKLLKPELEIYKALTNSCGIKPEESIFIDDREENVEAAIKLGFNGIVFKDAYELKGKFDELGIAIEGHHHHHH”, the “soluble on expression in E. coli” value is reported as “soluble”. For “MNVSVNIKNVTKEYRIYRTNKERMKDALIPKHKNKTFFALDDISLKAYEGDVIGLVGINGSGKSTLSNIIGGSLSPTVGKVDRNGEVSVIAISAGLSGQLTGIENIEFKMLCMGFKRKEIKAMTPKIIEFSELGEFIYQPVKKYSSGMRAKLGFSINITVNPDILVIDEALSVGDQTFAQKCLDKIYEFKEQNKTIFFVSHNLGQVRQFCTKIAWIEGGKLKDYGELDDVLPKYEAFLNDFKKKSKAEQKEFRNKLDESRFVIK”, the “soluble on expression in E. coli” value was “not soluble”. In the case of “MNERLKEKLAVLPEQPGCYLMKDKHGTVIYVGKAKSLKERVRSYFTGTHDGKTQRLVEEIADFEYIVTSSNAEALILEMNLIKKHDPKYNVMLKDDKSY”, the “soluble on expression in E. coli” value is reported as “soluble”. In the case of “MDRVDCIVIGAGVVGLAVARKLAQAGREVIVLEEAEAIGTITSSRNSEVIHAGIYYRAGSWMARMCVNGKHALYRYCGERGIPHKNCGKLIVATNAKETEKLQSIKAHAEANGVLDMQLLTGEAARALEPALACDAALLSPSTGIIDSHAYMLSLRGEAEEAGAAFAFHTPLIRAKAAAGMIEVEAGGEAPMALQCSLLVNAAGLAATTVARNIDGMPLDRIPPAYLAKGNYFSCNAKAPFSHLIYPVPEPGGLGVHLTLDMAGQARFGPDVEWIETINYEVDPSRAERFYPAIRRYWPTLPDGALMPSYSGIRPKIVPPAVATQDFLMQGPRDHGVAGLINLFGIESPGLTSSLAIADHVAELANILEHHHHHH”, the “soluble on expression in E. coli” value is reported as “not soluble”. In the case of “MNRCILLALLPLISAIPVAVNIDDQDAVNLGAYDRARFDLVESFHPLQPASAVTNDQIAEVRAKAAGVRQNEASISIDLPTQMLSGSSGRIPERLAFGEWTEWTSWSMCQNGERSRVRTCVSRKPALRVVCHGDAIEIEKCYVDAGEGHIPVAADPWSIEREISGDFA”, the “soluble on expression in E. coli” value is reported as “not soluble”. With “MERHVPEPTHTLEGWHVLHDFRLLDFARWFSAPLEAREDAWEELKGLVREWRELEEAGQGSYGIYQVVGHKADLLFLNLRPGLDPLLEAEARLSRSAFARYLGRSYSFYSVVELGSQEKPLDPESPYVKPRLTPRVPKSGYVCFYPMNKRRQGQDNWYMLPAKERASLMKAHGETGRKYQGKVMQVISGAQGLDDWEWGVDLFSEDPVQFKKIVYEMRFDEVSARYGEFGPFFVGKYLDEEALRAFLGL” the “soluble on expression in E. coli” value was “soluble”. For “QNSPQDYLAVHNDARAQVGVGPMSWDANLASRAQNYANSRAGDCNLIHSGAGENLAKGGGDFTGRAAVQLWVSERPSYNYATNQCVGGKKCRHYTQVVWRNSVRLGCGRARCNNGWWFISCNYDPVGNWIGQRPY”, the “soluble on expression in E. coli” value was “soluble”. For “MMKILPHVTNETAPLRTVVLGLPDSTGGAPALADTYDAKSYESVLRGTYPSDEDIKIEMDAVLDVLVRHGIEVLRPEPIANYNQIFARDVAFAIDDKLFVSNLIADRARESEAFSPIWDCVGESHLVRLSEDIHAEGGDILLYDDILFIGTYLQKDYPSFKTARTNARAVDFFREFFPHKTIIPIELIKHDTDPMRSVLHLDCAFQPVGRSRAIVYRQGFLHSESFGLITEIFGGRDNLFEITPEEAYMMNTNIFSISPDTVISEQNFVRLNNHLREAWGMTVEEVPYAEISKQGGLLRCSTMPLVRE”, the “soluble on expression in E. coli” value was “not soluble”. With “MGSDKIHHHHHHMMKLIPRSSDISPGIDGICPGPFPPNGFTVLTDAAYGNGDCFGLYWPIGQEHKLPIVCETYHDEWRIVPAFSSIKKFEEWLEVNDDDPHENGISIEDQDFAANLFRVARKCLSTGRLDDALPLLQRATEQLPEVSEYWLALAIQYRRCKKTEAAAQAALNAYLGNWAFGVPDNKVIHLLSQAADVPNFQDDPVIQCIKEQGLDLSFGGTKENNNYPLMQMCVDTYFAQRKPLQALTLLHNYAWIMSSETTAFQERYDFNIDEWRAKFRQLCLEYFGDSRTQFT” the “soluble on expression in E. coli” value was “not soluble”. In the case of “MMNEPQVSFITVCYNGFKDTCELIESLQTHVHSVSYEIIVVDNASREDEATKIKELYSDIVTLRSESNLGFSGGNNLGIRVAKGAYIFLINNDTYVESDGFHYLTERLESQKNIGAVSPKIRFAFPPQNIQFAGFTSLSAITIRNEMTGFGCPDDGTFDTPHTTPYLHGAALMVKREVIEKVGEMPEIFFLYYEEMDWCTQMTNAGYELWYEPRCTVFHKESQSTGQFSKLRTFYMTRNRLLYTRRNRKGAQRLLSILYQSTIAAGKNSLQFAVKGRFDLFAAVWKGVVRSFSVTSPIRLEHHHHHH”, the “soluble on expression in E. coli” value is reported as “not soluble”. With “MGSDKIHHHHHHVTEPIRLYYWPAPNFGDALSHLVVEHVSGRPVVNARPKQAELFALGSLMHVISRHWTERVRGEGPLLWGTGLLNPFYRKEFLENVRVRLLRGPISAAFLRLKMTEFGDPGLLADEAVGPVEDRHDRVAIVPHHSQMDDPRFVEMVEADPALHLIDVRLDPVTVCREIAASAHVFSASLHGLIVADAYGVANTWMDPEAQGRLKYHDYAAAIGRDMIAPVEIRDVPKAARTARDRPFPYADGIARCRESLHRHFPAELRAPLRATAS” the “soluble on expression in E. coli” value was “not soluble”. With “MATLDVNPELYQAQLADKIARLKAMFVDYSMPELEVFESPVANYRMRAEFRIWHEGDDMYYIMFNQETREKYRVDQFPAASRLINDLMPLLMDAMKGSPILRHKLFQVDFLSTLSGEILVSLLYHRQLSEEWITAAQALKQRLNDEGFNLNLIGRARKMKVVLDRDYVVENLQVNGQPYVYKQVENSFTQPNAKVAEKMLEWAVDCTQESKGDLLELYCGNGNFSLALAQNFERVLATELAKPSVEAAQFNIAANQIGNVQIIRMSAEEFTQAMEGKREFNRLKDAGVDLQSYRCNTIFVDPPRSGMDIDTCKMVQGYERILYISCNPETLQENLQVLGETHQVVRFALFDQFPYTHHMEAGVMLERKK” the “soluble on expression in E. coli” value was “not soluble”. With “MSKKVLIITGDAVEALEVYYPYYRLLEEGHDVTIAAPKKKKLHTVVHDFADWDTYVEKQGYLIDAHASFAEVDPAQYDALVIPGGRAPEYIRLDENVQRIVRHFFEANKPIAAICHASLIFETMPDLLKGRSLTAYIACKPGVEALGATYVSDNTVHVDGNLVSAHAWPDLPAFMREFLRLLQ” the “soluble on expression in E. coli” value was “soluble”. With “MAHHHHHHMGTLEAQTQGPGSMGTSQEFETSSLKTLPLYELHEKAGAKFGAFAGWRMPLTYPLGVLKEHLHTRAHAGLFDISHMKLIAVEGPKAVEFLSYALPVDAALLKIGQSRYSYLLNERAGILDDLILTRLAECRFMLVANAGNAQADFAELEKRAFGFECQVIALERVLLALQGPQAAAVLADAGLPGNELLFMQGFEPQQDWFITRSGYTGEDGFEIALPIGCARALAEKLLGDSRVEWVGLAARDSLRLEAGLCLHGNDITPDTTPIDAALTWAVPKNVREKAQFYGAKAFLESLQKGPSRCRVGLKPQTRQPIRAGAVLFDNEGNRIGVVTSGGFGPSFDGPVAMGYVPVAWKVEGTEVFTELRGKKIALSVHSLPFVEQRYFKG” the “soluble on expression in E. coli” value was “soluble”. For “MSLTKFHGVFPPVPTIVNAQGELDKVGMATLLDHLIASKVNGVLLLGSGGEFCHMTNALRLETAEFCVRHINRRIPVLLGISSTSTQEVIEYGQHADRLEVDAVLVLNPYYARLTDEYIYHHFKTVANNIKSPVILYNFPALTGQDLSVDLITRLAQDHPNIIGIKDTVDNISHIREIINNVRPVRPDFVIFSGYDEYMMDTLILGGNGGIPATANFAPQLTCGIYRAWCEKEYETMFGLQRRLSALSTIYSLDSPFFGIIKKAIQLSGVDISTHVMPPVLPANEEHISNLKQILQRAGLEGHHHHHH”, the “soluble on expression in E. coli” value was “soluble”. In the case of “MNPIPADVAAVVLAGGVGRRFGRPKALAMMDGISLVERAVEALSSGPADVYVSVSPALERPVARLVGSRRVIVDLVEQAPCEGPLRAFLTAASTLVSYSNLVFMPVDAPWASWRDLEPIYNASKAIGSGASYFSGEGIVHPLFLAARRKSLLTAAWTACWGRAEKRASAILRSLDPLILLGSSETRSPLALATVNTPQDLWRPSRVPAPAEGYILLEGHSILYKISSTMNSYYSALALEAEYKLYRRLGLLRLASHVLKDAAALNVSTSLIQQESMAGGLGLEHHHHHH”, the “soluble on expression in E. coli” value is reported as “not soluble”. In the case of “SMVRLKKSFGQHLLVSEGVLKKIAEELNIEEGNTVVEVGGGTGNLTKVLLQHPLKKLYVIELDREMVENLKSIGDERLEVINEDASKFPFCSLGKELKVVGNLPYNVASLIIENTVYNKDCVPLAVFMVQKEVAEKLQGKKDTGWLSVFVRTFYDVNYVMTVPPRFFVPPPKVQSAVIKLVKNEKFPVKDLKNYKKFLTKIFQNRRKVLRKKIPEELLKEAGINPDARVEQLSLEDFFKLYRLIEDSGE”, the “soluble on expression in E. coli” value is reported as “soluble”. In the case of “SGGRRWNWVQSWPVWKYFKEYFPICLVKTQDLDPGHNYIFGFHPHGIFVPGAFGNFCTKYSDFKKLFPGFTSYLHVAKIWFCFPLFREYLMSNGPVSVSKESLSHVLSKDGGGNVSIIVLGGAKEALEAHPGTFTLCIRQRKGFVKMALTHGASLVPVFSFGENDLYKQINNPKGSWLRTIQDAMYDSMGVALPLIYARGIFQHYFGIMPYRKLIYTVVGRPIPVQQILNPTSEQIEELHQTYLEELKKLFNEHKGKYGIPEHETLVFK”, the “soluble on expression in E. coli” value is reported as “soluble”.
